Patent US7091027B1, “Transgenic amorpha-4,11-diene synthesis” (GenoClipp Biotechnology B.V., priority 1998, dated 2006)

System: T1, CC(C)=CCC/C(C)=C/CC/C(C)=C/CO[P@@](=O)(O)OP(=O)(O)O
T1 construct: This enzyme preparation was used for the measurement of enzyme characteristics such as molecular weight and Km; from tissue; host or cells: young leaves of greenhouse-grown A. annua
Assay: Enzyme kinetics of Mono-Q purified amorphadiene synthase in the [3H]-FPP assay
Format: biochemical, A. annua
Settings: other: 5- and 10-fold diluted Mono-Q eluted enzyme preparation, [3H]-FPP 0.25–100 μM, 30 min at 30° C.
Procedure: During enzyme isolation and preparation of the assays, all operations were carried out on ice or at 4° C. Ten grams of frozen young leaves from greenhouse-grown A. annua were ground in a pre-chilled mortar and pestle in 40 ml of pre-chilled buffer containing 25 mM MES (pH 5.5), 20% (v/v) glycerol, 25 mM sodium ascorbate, 25 mM NaHSO3, 10 mM MgCl2 and 5 mM DTT (buffer A) slurried with 1 g polyvinylpolypyrrolidone (PVPP) and a spatula tip of purified sea sand. Ten grams of polystyrene resin (Amberlite XAD-4, Serva) were added and the slurry was stirred carefully for 10 min and then filtered through cheesecloth. The filtrate was centrifuged at 20,000 g for 20 min (pellet discarded), and then at 100,000 g for 90 min. […]
The remainder of the supernatant was added to 12.5 g DEAE anion exchanger (Whatman DE-52), which had been rinsed several times with buffer A, and stirred carefully for 10 min. […] The molecular weight was determined using size-exclusion chromatography. 200 μl of the Mono-Q eluent was loaded on a Superdex 75 (H/R10/30, Pharmacia Biotech) and eluted in the same buffer as used for Mono-Q. Enzyme activities in 0.5 ml fractions were determined as described for Mono-Q, but using undiluted eluent. […] Enzyme-kinetics were determined using 5- and 10-fold diluted Mono-Q eluted enzyme preparation and [^3H]-FPP concentrations ranging from 0.25–100 μM. […]

Sequence of amorphadiene synthase (Artemisia annua) (chain, as listed by the source): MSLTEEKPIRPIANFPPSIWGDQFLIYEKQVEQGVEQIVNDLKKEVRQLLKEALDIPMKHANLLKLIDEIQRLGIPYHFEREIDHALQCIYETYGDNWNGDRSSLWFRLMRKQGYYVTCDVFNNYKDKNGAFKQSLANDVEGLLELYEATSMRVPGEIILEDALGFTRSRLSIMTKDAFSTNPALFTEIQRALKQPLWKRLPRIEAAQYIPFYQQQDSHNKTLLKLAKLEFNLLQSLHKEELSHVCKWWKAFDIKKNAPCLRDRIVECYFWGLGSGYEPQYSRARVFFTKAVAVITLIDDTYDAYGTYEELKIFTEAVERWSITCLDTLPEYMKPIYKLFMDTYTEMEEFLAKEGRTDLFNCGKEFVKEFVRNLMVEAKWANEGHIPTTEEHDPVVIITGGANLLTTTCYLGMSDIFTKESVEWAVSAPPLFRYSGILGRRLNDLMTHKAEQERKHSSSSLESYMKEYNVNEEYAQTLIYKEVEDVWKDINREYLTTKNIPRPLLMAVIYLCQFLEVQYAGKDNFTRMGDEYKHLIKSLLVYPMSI

amorphadiene synthase (Artemisia annua)
Km: 0.6 µM
